Article PMC5694763

Target: dCas9 (SpCas9 D10A/H840A) D10A;H840A (Streptococcus pyogenes) (UniProt Q99ZW2)
Experiment: SPR
Conditions: SPR: PBS, 0.005% Tween-20, 25 C, BLI: PBS, 0.005% Tween-20, 1 mM MgCl2, 50 ug/ml heparin, SwitchSENSE: 20 mM Tris pH 7.4, 100 mM KCl, 5 mM MgCl2, 0.01% …

Substance	Kd (DNA with 7 RNA residues (1,15,16,19,22,23,24)) [nM]	Kd (dCas9 immobilised, 1.2-100 nM titration) [nM]	Kd (dCas9 immobilised, kinetic 1:1 fit) [nM]
AGCACTGCACGCCGUAGGUCGUUUTAGAGCTATGCTGTTTTG [GFP cr1 crHyb with tracrRNA]	< 1	–	–
tracrRNA (88 nt)	–	6.2	0.308
